Data taken from paper PMC7016869.
pKd: −log10 of the molar value. Where “and” joins values, the source holds several entries; their conditions need not be identical. Equal values may be shown once.

Legend:
[1] = molecular target: Exchange protein directly activated by cAMP 1 (EPAC1), recombinant full-length wild-type EPAC1B (human); experiment: MST; EPAC1-cAMP and Rap1; no further conditions told
[2] = molecular target: Exchange protein directly activated by cAMP 1 (EPAC1), recombinant full-length wild-type EPAC1B (human); experiment: SAXS; EPAC1 with 1 mM cAMP, no Rap1b, 2.7 mg/mL, 10 mM Tris pH 9, 1 mM EDTA, 10 mM DTT, 500 mM NaCl; monomer to dimer

Sequence of C-terminally truncated Rap1b (1-167) (P61224 1-167): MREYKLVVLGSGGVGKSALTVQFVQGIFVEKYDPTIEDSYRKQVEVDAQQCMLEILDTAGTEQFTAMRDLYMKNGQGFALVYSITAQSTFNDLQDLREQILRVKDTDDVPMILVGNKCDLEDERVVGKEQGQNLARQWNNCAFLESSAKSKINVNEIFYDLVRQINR

Row | pKd [1] | percent monomer in solution (EOM/polydispersity analysis) [2] [%] | stoichiometry N [2] | Substance
1 | 7.22 to 7.70 |  |  | C-terminally truncated Rap1b (1-167) (from UniProt P61224 1-167) (domain or fragment)
2 |  | 5 to 15 | 1.8 and 2.4 and 2.2 | Exchange protein directly activated by cAMP 1 (EPAC1), recombinant full-length wild-type EPAC1B (natural protein)
